Assay results taken from patent US20230357429A1 (JANUX THERAPEUTICS, published 2023).
Read-outs that look alike come from different tables or passages of the source. Where no end group is shown, it is not given here.

Assays:
[1] = molecular target: T1, Human TROP2 ECD (31-274 AA), biotinylated (human, UniProt P09758 31-274, biotinylated (site not stated)); assay: ELISA, ratio of EC50 to that of TBD-1 wt
T1 construct: also called tumor-associated calcium signal transducer 2; Human TROP2-biotin
T1 sequence: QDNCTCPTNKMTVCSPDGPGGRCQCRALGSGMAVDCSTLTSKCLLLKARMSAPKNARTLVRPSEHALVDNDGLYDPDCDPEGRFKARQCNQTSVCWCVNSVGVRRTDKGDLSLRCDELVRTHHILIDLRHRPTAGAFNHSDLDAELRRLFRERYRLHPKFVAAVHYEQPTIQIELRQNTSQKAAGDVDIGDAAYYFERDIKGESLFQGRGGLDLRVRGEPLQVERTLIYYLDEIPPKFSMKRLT

[2] = molecular target: T1, Human TROP2 ECD (31-274 AA), …; assay: BLI (Octet), dissociation half-life from biotinylated human TROP2 ECD
Description: (§1) Kinetic binding was measured using biolayer interferometry (BLI). […] The TBDs diluted in buffer were then associated onto the antigen loaded biosensors. Sensors were then transferred to buffer where the TBD constructs then dissociated from the sensors. Association and dissociation rates were measured in real time using an Octet® instrument.

[3] = molecular target: T1, Human TROP2 ECD (31-274 AA), …; assay: ELISA: biotinylated TROP2 captured on neutravidin plate, Fab titrated, HRP secondary antibody
Description: (§2) Binding was detected using a standard horse radish peroxidase secondary antibody. The concentration of the TBD required to achieve 50% maximal signal (EC₅₀) was calculated.

[4] = molecular target: T1, Human TROP2 ECD (31-274 AA), …; assay: ELISA, biotinylated TROP2 ECD on neutravidin plate, Fab titrated
Description: as §2

[5] = molecular target: T1, Human TROP2 ECD (31-274 AA), …; assay: BLI (Octet), biotinylated human TROP2 ECD on SAX sensor, Fab 6.25-50 nM
Description: as §1

[6] = molecular target: T2, Human TROP2 ECD (31-274 AA), biotinylated (human, UniProt P09758 31-274, biotinylated (site not stated)); assay: ELISA, Fab on captured biotin-TROP2
T2 construct: captured on neutravidin plates; also called TROP2-biotin; Trop2-biotin
T2 sequence: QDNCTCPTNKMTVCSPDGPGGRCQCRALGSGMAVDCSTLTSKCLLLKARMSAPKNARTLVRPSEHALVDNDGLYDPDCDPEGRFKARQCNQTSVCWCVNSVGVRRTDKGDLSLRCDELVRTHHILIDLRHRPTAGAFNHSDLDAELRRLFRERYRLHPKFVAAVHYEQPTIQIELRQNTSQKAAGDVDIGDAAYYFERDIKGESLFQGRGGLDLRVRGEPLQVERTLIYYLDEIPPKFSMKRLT

Peptide-1 = molecular target: T3, Peptide-1 (cysteine pairing not given here; also: biotinylated (site not given here)); assay: ELISA, Fab on captured biotin-peptide
T3 peptide: IDFCAMYQWPICDT

Peptide-18 = molecular target: T4, Peptide-18 (cysteine pairing not given here; also: biotinylated (site not given here)); assay: ELISA, Fab on captured biotin-peptide
T4 peptide: MDFCQIYDWPICRL

Peptide-10 = molecular target: T5, Peptide-10 (cysteine pairing not given here; also: biotinylated (site not given here)); assay: ELISA, Fab on captured biotin-peptide
T5 peptide: IDFCAIYQWPVCRS

Peptide-14 = molecular target: T6, Peptide-14 (cysteine pairing not given here; also: biotinylated (site not given here)); assay: ELISA, Fab on captured biotin-peptide
T6 peptide: LDFCKIYDWPICHL

Peptide-13 = molecular target: T7, Peptide-13 (cysteine pairing not given here; also: biotinylated (site not given here)); assay: ELISA, Fab on captured biotin-peptide
T7 peptide: VDFCELYRWPICNS

Peptide-5 = molecular target: T8, Peptide-5 (cysteine pairing not given here; also: biotinylated, site not given here); assay: ELISA, Fab on captured biotin-peptide
T8 peptide: VDFCKLYNWPVCQT

Peptide-2 = molecular target: T9, Peptide-2 (cysteine pairing not given here; also: biotinylated (site not given here)); assay: ELISA, Fab on captured biotin-peptide
T9 peptide: IDFCAVYKWPVCQV

Peptide-20 = molecular target: T10, Peptide-20 (cysteine pairing not given here; also: biotinylated (site not given here)); assay: ELISA, Fab on captured biotin-peptide
T10 peptide: VDFCSFYRWPICET

Peptide-25 [7] = molecular target: T11, Peptide-25 (cysteine pairing not given here; also: biotinylated (site not given here)); assay: ELISA, Fab on captured biotin-peptide
T11 peptide: VDFCKIYSWPVCHQ

Peptide-4 = molecular target: T12, Peptide-4 (cysteine pairing not given here; also: biotinylated, site not given here); assay: ELISA, Fab on captured biotin-peptide
T12 peptide: VDFCKIYAWPICGS

Peptide-8 [8] = molecular target: T13, Peptide-8 (cysteine pairing not given here; also: biotinylated, site not given here); assay: ELISA, Fab on captured biotin-peptide
T13 peptide: VDFCGLYHWPICYQ

Peptide-3 [9] = molecular target: T14, Peptide-3 (cysteine pairing not given here; also: biotinylated, site not given here); assay: ELISA, Fab on captured biotin-peptide
T14 peptide: IDFCMLYNWPICAG

Peptide-12 = molecular target: T15, Peptide-12 (cysteine pairing not given here; also: biotinylated (site not given here)); assay: ELISA, Fab on captured biotin-peptide
T15 peptide: PDFCAVYRWPICYQ

Peptide-6 = molecular target: T16, Peptide-6 (cysteine pairing not given here; also: biotinylated, site not given here); assay: ELISA, Fab on captured biotin-peptide
T16 peptide: IDFCLIYNWPVCDT

Peptide-7 = molecular target: T17, Peptide-7 (cysteine pairing not given here; also: biotinylated, site not given here); assay: ELISA, Fab on captured biotin-peptide
T17 peptide: EDFCKLYNWPICYQ

Peptide-17 = molecular target: T18, Peptide-17 (cysteine pairing not given here; also: biotinylated (site not given here)); assay: ELISA, Fab on captured biotin-peptide
T18 peptide: IDFCLLYDWPICGR

[10] = molecular target: T2, Human TROP2 ECD (31-274 AA), …; assay: ELISA, Fab on captured biotin-TROP2; remark: listed apart in the source
Peptide-40 = molecular target: T19, Peptide-40 (cysteine pairing not given here; also: biotinylated, site not given here); assay: ELISA, Fab on captured biotin-peptide
T19 peptide: VDFCYLYSWPICTK

Peptide-35 = molecular target: T20, Peptide-35 (cysteine pairing not given here; also: biotinylated, site not given here); assay: ELISA, Fab on captured biotin-peptide
T20 peptide: EDFCYWYQWPICSD

Peptide-37 = molecular target: T21, Peptide-37 (cysteine pairing not given here; also: biotinylated, site not given here); assay: ELISA, Fab on captured biotin-peptide
T21 peptide: VDFCYLYNWPVCSK

Peptide-33 = molecular target: T22, Peptide-33 (cysteine pairing not given here; also: biotinylated, site not given here); assay: ELISA, Fab on captured biotin-peptide
T22 peptide: PDFCYMYNWPVCVT

Peptide-41 = molecular target: T23, Peptide-41 (cysteine pairing not given here; also: biotinylated, site not given here); assay: ELISA, Fab on captured biotin-peptide
T23 peptide: VDFCGLYHWPICYQVY

Peptide-25 [11] = molecular target: T11, Peptide-25; assay: ELISA, Fab on captured biotin-peptide
Description: (§3) Binding was measured in a standard ELISA format. […] Bound TBDs were detected using a standard horse radish peroxidase conjugate secondary antibody. The ELISA signal was plotted versus the log-scale concentration of TBD. The concentrations of TBD required to observe half maximal binding signal (EC₅₀s) were calculated using Graphpad Prism software.

Peptide-36 = molecular target: T24, Peptide-36 (cysteine pairing not given here; also: biotinylated, site not given here); assay: ELISA, Fab on captured biotin-peptide
T24 peptide: VDFCYQYGWPICSR

Peptide-62 = molecular target: T25, Peptide-62 (cysteine pairing not given here; also: biotinylated, site not given here); assay: ELISA, Fab on captured biotin-peptide
T25 peptide: IDFCAVYKWPVCQV

Peptide-63 = molecular target: T26, Peptide-63 (cysteine pairing not given here; also: biotinylated, site not given here); assay: ELISA, Fab on captured biotin-peptide
T26 peptide: IDFCLIYNWPVCDT

Peptide-64 = molecular target: T27, Peptide-64 (cysteine pairing not given here; also: biotinylated, site not given here); assay: ELISA, Fab on captured biotin-peptide
T27 peptide: PDFCAVYRWPICYQ

Peptide-38 = molecular target: T28, Peptide-38 (cysteine pairing not given here; also: biotinylated, site not given here); assay: ELISA, Fab on captured biotin-peptide
T28 peptide: VDFCSIYHWPVCYV

Peptide-32 = molecular target: T29, Peptide-32 (cysteine pairing not given here; also: biotinylated, site not given here); assay: ELISA, Fab on captured biotin-peptide
T29 peptide: PDFCYMYGWPICDS

Peptide-8 [12] = molecular target: T13, Peptide-8; assay: ELISA, Fab on captured biotin-peptide
Description: as §3

Peptide-3 [13] = molecular target: T14, Peptide-3; assay: ELISA, Fab on captured biotin-peptide
Description: as §3

Peptide-39 = molecular target: T30, Peptide-39 (cysteine pairing not given here; also: biotinylated, site not given here); assay: ELISA, Fab on captured biotin-peptide
T30 peptide: VDFCGLYHWPICYQVD

Peptide-42 = molecular target: T31, Peptide-42 (cysteine pairing not given here; also: biotinylated, site not given here); assay: ELISA, Fab on captured biotin-peptide
T31 peptide: IDFCAMYHWPICDT

Peptide-43 = molecular target: T32, Peptide-43 (cysteine pairing not given here; also: biotinylated, site not given here); assay: ELISA, Fab on captured biotin-peptide
T32 peptide: VDFCALYHWPICYQ

[14] = molecular target: T1, Human TROP2 ECD (31-274 AA), …; assay: ELISA: biotinylated TROP2 captured on neutravidin plate, Fab titrated, HRP secondary antibody; remark: listed apart in the source
Description: as §2

B1: TBD-11 (anti-TROP2 Fab, HC R98A) (Fab, V domains shown)
VH: QVQLQQSGSELKKPGASVKVSCKASGYTFTNYGMNWVKQAPGQGLKWMGWINTYTGEPTYTDDFKGRFAFSLDTSVSTAYLQISSLKADDTAVYFCAAGGFGSSYWYFDVWGQGSLVTVSS
VL: DIQLTQSPSSLSASVGDRVSITCKASQDVSIAVAWYQQKPGKAPKLLIYSASYRYTGVPDRFSGSGSGTDFTLTISSLQPEDFAVYYCQQHYITPLTFGAGTKVEIKR
notes: also called TBD-11 (HC R98A mutant)
Fold shift in EC50 relative to wt [1]: 19 fold | t1/2 [2]: 10 min | EC50 [3]: 3.8 nM | EC50 [4]: 3.8 nM | Kd [5]: 3.88 nM

B2: TBD-22 (HC D109A) (Fab, V domains shown)
VH: QVQLQQSGSELKKPGASVKVSCKASGYTFTNYGMNWVKQAPGQGLKWMGWINTYTGEPTYTDDFKGRFAFSLDTSVSTAYLQISSLKADDTAVYFCARGGFGSSYWYFAVWGQGSLVTVSS
VL: DIQLTQSPSSLSASVGDRVSITCKASQDVSIAVAWYQQKPGKAPKLLIYSASYRYTGVPDRFSGSGSGTDFTLTISSLQPEDFAVYYCQQHYITPLTFGAGTKVEIKR
notes: Fab; also called HC D109A mutant
EC50 [6]: 1.1 nM | EC50 (Peptide-1): 1 nM | EC50 (Peptide-18): 7.8 nM | EC50 (Peptide-10): 1 nM | EC50 (Peptide-14): 5.3 nM | EC50 (Peptide-13): 3.9 nM | EC50 (Peptide-5): 0.9 nM | EC50 (Peptide-2): 1.1 nM | EC50 (Peptide-20): 5.3 nM | EC50 (Peptide-25 [7]): 1.9 nM | EC50 (Peptide-4): 1.2 nM | EC50 (Peptide-8 [8]): 0.6 nM | EC50 (Peptide-3 [9]): 1.6 nM | EC50 (Peptide-12): 0.6 nM | EC50 (Peptide-6): 1.4 nM | EC50 (Peptide-7): 3.6 nM | EC50 (Peptide-17): 2.6 nM | EC50 [10]: 1.1 nM | EC50 (Peptide-40): 4.6 nM | EC50 (Peptide-35): 7.7 nM | EC50 (Peptide-37): 1.7 nM | EC50 (Peptide-33): 1.5 nM | EC50 (Peptide-41): 6 nM | EC50 (Peptide-25 [11]): 2.8 nM | EC50 (Peptide-36): 2.2 nM | EC50 (Peptide-62): 0.9 nM | EC50 (Peptide-63): 1.7 nM | EC50 (Peptide-64): 1.7 nM | EC50 (Peptide-38): 2 nM | EC50 (Peptide-32): 2.1 nM | EC50 (Peptide-8 [12]): 0.6 nM | EC50 (Peptide-3 [13]): 3 nM | EC50 (Peptide-39): 4.6 nM | EC50 (Peptide-42): 0.8 nM | EC50 (Peptide-43): 0.9 nM

B3: TBD-16 (anti-TROP2 Fab, HC S103A) (Fab, V domains shown)
VH: QVQLQQSGSELKKPGASVKVSCKASGYTFTNYGMNWVKQAPGQGLKWMGWINTYTGEPTYTDDFKGRFAFSLDTSVSTAYLQISSLKADDTAVYFCARGGFGASYWYFDVWGQGSLVTVSS
VL: DIQLTQSPSSLSASVGDRVSITCKASQDVSIAVAWYQQKPGKAPKLLIYSASYRYTGVPDRFSGSGSGTDFTLTISSLQPEDFAVYYCQQHYITPLTFGAGTKVEIKR
Fold shift in EC50 relative to wt [1]: 1 fold | t1/2 [2]: 103 min | EC50 [4]: 0.2 nM | Kd [5]: 0.211 nM | EC50 [14]: 0.177 nM

B4: TBD-14 (anti-TROP2 Fab, HC F101A) (Fab, V domains shown)
VH: QVQLQQSGSELKKPGASVKVSCKASGYTFTNYGMNWVKQAPGQGLKWMGWINTYTGEPTYTDDFKGRFAFSLDTSVSTAYLQISSLKADDTAVYFCARGGAGSSYWYFDVWGQGSLVTVSS
VL: DIQLTQSPSSLSASVGDRVSITCKASQDVSIAVAWYQQKPGKAPKLLIYSASYRYTGVPDRFSGSGSGTDFTLTISSLQPEDFAVYYCQQHYITPLTFGAGTKVEIKR
Fold shift in EC50 relative to wt [1]: 193 fold | t1/2 [2]: 4 min | EC50 [4]: 38.6 nM | Kd [5]: 18.7 nM | EC50 [14]: 38.6 nM

B5: TBD-15 (anti-TROP2 Fab, HC G102A) (Fab, V domains shown)
VH: QVQLQQSGSELKKPGASVKVSCKASGYTFTNYGMNWVKQAPGQGLKWMGWINTYTGEPTYTDDFKGRFAFSLDTSVSTAYLQISSLKADDTAVYFCARGGFASSYWYFDVWGQGSLVTVSS
VL: DIQLTQSPSSLSASVGDRVSITCKASQDVSIAVAWYQQKPGKAPKLLIYSASYRYTGVPDRFSGSGSGTDFTLTISSLQPEDFAVYYCQQHYITPLTFGAGTKVEIKR
Fold shift in EC50 relative to wt [1]: 361 fold | t1/2 [2]: 1 min | EC50 [4]: 72.2 nM | Kd [5]: 5.71 nM | EC50 [14]: 72.2 nM
